The values below come from PMC9491710 (Science Advances, 2022).

Data set [1] concerns the molecule itself. Kind of data set: crystal structure.
Data set [2] deals with the molecule itself. Kind of data set: crystal structure. The source holds these as a separate data set.
Data set [3] concerns the molecule itself. Kind of data set: crystal structure. The source holds these as a separate data set.
The data set “cryo-EM structure” concerns the molecule itself. Kind of data set: cryo-EM structure.

B1: isolated KS3 domain (amino acids 532 to 1135 of BBR47_39880) (domain or fragment, UniProt C0ZGQ6 532-1135, looked up)
chain: SPSSVVRDVAIIGLSGRYPQAKNVDEFWNRLKEGKNCISEIPKDRWDWQSFFDEEKGKKESMYTKWGGFIDDMDKFDPLFFQISPKEAEEMDPQERLFLQEAYASIEDAGYTPTTLCESRKVGVFVGVMNGNYPTGATYWSIANRLSYLLNFQGPSVAVDTACSASLTAIHFALESLYSGTSECAIAGGVNLIVDPVHYMKLSALTMLSPSNQCKSFGDQADGFVDGEGVGAIVLKPLDKAIADGDHIYGVIKGSMMNAGGKTNGYTVPNPQAQAQLVADALQRANVHARTVSYLEAHGTGTELGDPIEVAGLTRAFEKDTQDKQFCALGSAKSNIGHCESAAGIAGVTKILLQLKHAQLVPSLHSRTLNPNIDFTKTPFVVQQELAEWRRPIVEINGTTNEYPRIAGISSFGAGGSNAHVIIEEYIPEEQKQSSLKITPQNPAIFVLSAKNAERLYEIVQQLLAFIQEHSLSDEHLADMAYTLQVGRVAMEERIAVIAGTMKELQQKLTAYVKGQEHIADLYRGQVNRNQEMLDILTSDDELEETIARWMERGKYSKLLDLWVKGLSIDWNKLYQEEQPGRISLPTYPFAKESYWTHARSVSS
For B1, in the data set “crystal structure [1]”, the stoichiometry N (commonly the number of molecules, sites or subunits per partner or assembly) worked out at 2.

B2: isolated DH3 domain (amino acids 1135 to 1434 of BBR47_39880) (domain or fragment, UniProt C0ZGQ6 1135-1434, looked up)
chain: SSTGVGVIHPFLHQNTSDFMEQRFSSMFTGQEFFLSDHVIKGQRVLPSAAYLEMARAAIQQATGGLDSERELEGLRFKNVVWTQPLAVGPEPVQAHIELYPEANGEIVFEIYSDSKQDRDQTTEIVHSQGSAVLCSIPDIPSFDLSVLQEQCSLRTLSAEQCYDAFKKMGVDYGPAHRGIEQILIGQEQVLAKLSLPSSVVKTQGQFGLHPSLLDAALQSSLGLMMATSDFSLILPFALEEMVIVGDCSSSMWALIRYREGSKAGDRVEKFDIDLCDENGNVQVRMKGFSTRKIANVSVR
For the protein B2, the “stoichiometry N” value in “crystal structure [2]” amounted to 2.

B3: isolated KS4 domain (amino acids 1587 to 2220 of BBR47_39880) (domain or fragment, UniProt C0ZGQ6 1587-2220, looked up)
chain: PPKGALDIAIIGISGRYPQARNIHDFWKNLRDGKDCITEIPKDRWDHSLYFDEAKDKLGKSYSKWGGFIDGVDQFDPLFFHISPREAELMDPQERLFLQCVYETIEDAGYTRETLGKHEGLGGNVGVYVGVMYEEYQLYASAEQALGRALAIAGSPASIANRVSYFCNFHGPSMAVDTMCSSSLTGIHLACHSLQRGECEVAIAGGVNVSIHPNKYLYLSQGKFASSKGRCESFGEGGDGYVPGEGVGAVLLKPLARAIADGDHIYGVIKGSAINHGGKTNGYTVPNPHSQSRVIRRAFEEAGIHPRTVSYIEAHGTGTSLGDPIEIAGLTKTFQEYTKENQFCAIGSAKSNIGHGESAAGIAGLTKILLQMKYKRLVPSLHSRTLNPNIDFSKTPFVVQQELAEWKRPVIEIDGVTREYARIAGISSFGAGGANAHLVIEEYIEAEHRPPSSISSKNPAVIVLSAKNKDRLREQVQRLLSAIREQVLTDNDLAEIAYTLQVGREAMEERFAVIVKSISELEAKLTYYLKDEADSPDLFTGQVKRNKETMDVFAADEDLQQAIDTWITKGKYAKILQMWVQGLIFDWNKLYGDTKPRRISLPAYPFARERYWLPKVESQAIGLTAGEPAYLHPL
On to B3, for which the “stoichiometry N” value in “crystal structure [3]” was 2.

B4: K3DAK4 bimodule core (KS3-DH3-ACP-KS4 fragment of BBR47_39880, amino acids 532 to 2220) (domain or fragment, UniProt C0ZGQ6 532-2220, looked up)
chain: SPSSVVRDVAIIGLSGRYPQAKNVDEFWNRLKEGKNCISEIPKDRWDWQSFFDEEKGKKESMYTKWGGFIDDMDKFDPLFFQISPKEAEEMDPQERLFLQEAYASIEDAGYTPTTLCESRKVGVFVGVMNGNYPTGATYWSIANRLSYLLNFQGPSVAVDTACSASLTAIHFALESLYSGTSECAIAGGVNLIVDPVHYMKLSALTMLSPSNQCKSFGDQADGFVDGEGVGAIVLKPLDKAIADGDHIYGVIKGSMMNAGGKTNGYTVPNPQAQAQLVADALQRANVHARTVSYLEAHGTGTELGDPIEVAGLTRAFEKDTQDKQFCALGSAKSNIGHCESAAGIAGVTKILLQLKHAQLVPSLHSRTLNPNIDFTKTPFVVQQELAEWRRPIVEINGTTNEYPRIAGISSFGAGGSNAHVIIEEYIPEEQKQSSLKITPQNPAIFVLSAKNAERLYEIVQQLLAFIQEHSLSDEHLADMAYTLQVGRVAMEERIAVIAGTMKELQQKLTAYVKGQEHIADLYRGQVNRNQEMLDILTSDDELEETIARWMERGKYSKLLDLWVKGLSIDWNKLYQEEQPGRISLPTYPFAKESYWTHARSVSSSTGVGVIHPFLHQNTSDFMEQRFSSMFTGQEFFLSDHVIKGQRVLPSAAYLEMARAAIQQATGGLDSERELEGLRFKNVVWTQPLAVGPEPVQAHIELYPEANGEIVFEIYSDSKQDRDQTTEIVHSQGSAVLCSIPDIPSFDLSVLQEQCSLRTLSAEQCYDAFKKMGVDYGPAHRGIEQILIGQEQVLAKLSLPSSVVKTQGQFGLHPSLLDAALQSSLGLMMATSDFSLILPFALEEMVIVGDCSSSMWALIRYREGSKAGDRVEKFDIDLCDENGNVQVRMKGFSTRKIANVSVRSEVEVPKASVPLEEEKAIDSSSLMEQATPYFKKLLSSVIKLPANKMEADASLEKYGVDSIVAMQMTKELEKQFGSLPKTLFFEYQTIKELTGYFLENYRENLMHILGMRENAEASLTQESEATMVDEVKAQTERRSKKRKSQRFASLRMETQPPKGALDIAIIGISGRYPQARNIHDFWKNLRDGKDCITEIPKDRWDHSLYFDEAKDKLGKSYSKWGGFIDGVDQFDPLFFHISPREAELMDPQERLFLQCVYETIEDAGYTRETLGKHEGLGGNVGVYVGVMYEEYQLYASAEQALGRALAIAGSPASIANRVSYFCNFHGPSMAVDTMCSSSLTGIHLACHSLQRGECEVAIAGGVNVSIHPNKYLYLSQGKFASSKGRCESFGEGGDGYVPGEGVGAVLLKPLARAIADGDHIYGVIKGSAINHGGKTNGYTVPNPHSQSRVIRRAFEEAGIHPRTVSYIEAHGTGTSLGDPIEIAGLTKTFQEYTKENQFCAIGSAKSNIGHGESAAGIAGLTKILLQMKYKRLVPSLHSRTLNPNIDFSKTPFVVQQELAEWKRPVIEIDGVTREYARIAGISSFGAGGANAHLVIEEYIEAEHRPPSSISSKNPAVIVLSAKNKDRLREQVQRLLSAIREQVLTDNDLAEIAYTLQVGREAMEERFAVIVKSISELEAKLTYYLKDEADSPDLFTGQVKRNKETMDVFAADEDLQQAIDTWITKGKYAKILQMWVQGLIFDWNKLYGDTKPRRISLPAYPFARERYWLPKVESQAIGLTAGEPAYLHPL
Take B4: in “cryo-EM structure”, the “stoichiometry N” value came out at 2.
